According to article PMC6930800, “Coexpression of CCR7 and CXCR4 During B Cell Development Controls CXCR4 Responsiveness and Bone Marrow Homing” (Frontiers in Immunology, 2019):
Each block holds one binder with its values, some of them ahead of it.

Legend:
[1] = target: T1, CCR7 expressed on CHO-K1 cells (UniProt P32248 25-378); assay: radioligand binding; competition on CHO-K1 cells expressing CCR7 only; tracer 0.1 nM 125I-CCL19, increasing concentrations of unlabelled competitor; non-specific binding defined with 300 nM competitor; details: one partner purified
T1 construct: chemokine receptor CCR7, recombinant, on CHO-K1 cells; source: CHO-K1 cells expressing CCR7 only or co-expressing CXCR4 and CCR7
T1 sequence (looked up): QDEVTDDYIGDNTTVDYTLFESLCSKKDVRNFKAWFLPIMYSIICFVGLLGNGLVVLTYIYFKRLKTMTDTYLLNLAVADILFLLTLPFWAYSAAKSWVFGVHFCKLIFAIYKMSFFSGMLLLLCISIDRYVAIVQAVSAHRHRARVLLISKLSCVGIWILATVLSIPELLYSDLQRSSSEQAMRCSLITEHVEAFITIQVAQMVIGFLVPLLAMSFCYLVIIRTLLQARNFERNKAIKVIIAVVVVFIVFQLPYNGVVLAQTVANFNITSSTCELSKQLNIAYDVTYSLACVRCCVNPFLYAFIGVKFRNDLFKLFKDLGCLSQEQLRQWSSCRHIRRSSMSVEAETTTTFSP

[2] = target: T1, CCR7 expressed on CHO-K1 cells; assay: radioligand binding; competition on CHO-K1 cells co-expressing CXCR4 and CCR7; tracer 0.1 nM 125I-CCL19, increasing concentrations of unlabelled competitor; non-specific binding defined with 300 nM competitor; details: one partner purified

IC50 [1]: 1.84 nM
IC50 [2]: 1.7 nM
B1: CCL19 (ligand, UniProt Q99731 22-98, looked up)
chain: GTNDAEDCCLSVTQKPIPGYIVRNFHYLLIKDGCRVPAVVFTTLRGRQLCAPPDQPWVERIIQRLQRTSAKMKRRSS
notes: also called unlabeled CCL19

IC50 [1]: 4.06 nM
IC50 [2]: 4.2 nM
B2: CCL21 (ligand, UniProt O00585 24-134, looked up)
chain: SDGGAQDCCLKYSQRKIPAKVVRSYRKQEPSLGCSIPAILFLPRKRSQAELCADPKELWVQQLMQHLDKTPSPQKPAQGCRKDRGASKTGKKGKGSKGCKRTERSQTPKGP
